{
  "source": "patent US6265551A",
  "about": "“Form of dipeptidylpeptidase IV (CD26) found in human serum, antibodies thereto, and uses thereof” (Dana-Farber Cancer Institute, Inc., priority 1996, dated 2001)",
  "proteins": {"B1": {"name": "recombinant soluble CD26 (rsCD26), full extracellular domain of human T cell membrane CD26/DPPIV, 105 kDa form, from transfected CHO cells (Homo sapiens) (protein)", "chain": "NKGTDDATADSRKTYTLTDYLKNTYRLKLYSLRWISDHEYLYKQENNILVFNAEYGNSSVFLENSTFDEFGHSINDYSISPDGQFILLEYNYVKQWRHSYTASYDIYDLNKRQLITEERIPNNTQWVTWSPVGHKLAYVWNNDIYVKIEPNLPSYRITWTGKEDIIYNGITDWVYEEEVFSAYSALWWSPNGTFLAYAQFNDTEVPLIEYSFYSDESLQYPKTVRVPYPKAGAVNPTVKFFVVNTDSLSSVTNATSIQITAPASMLIGDHYLCDVTWATQERISLQWLRRIQNYSVMDICDYDESSGRWNCLVARQHIEMSTTGWVGRFRPSEPHFTLDGNSFYKIISNEEGYRHICYFQIDKKDCTFITKGTWEVIGIEALTSDYLYYISNEYKGMPGGRNLYKIQLSDYTKVTCLSCELNPERCQYYSVSFSKEAKYYQLRCSGPGLPLYTLHSSVNDKGLRVLEDNSALDKMLQNVQMPSKKLDFIILNETKFWYQMILPPHFDKSKKYPLLLDVYAGPCSQKADTVFRLNWATYLASTENIIVASFDGRGSGYQGDKIMHAINRRLGTFEVEDQIEAARQFSKMGFVDNKRIAIWGWSYGGYVTSMVLGSGSGVFKCGIAVAPVSRWEYYDSVYTERYMGLPTPEDNLDHYRNSTVMSRAENFKQVEYLLIHGTADDNVHFQQSAQISKALVDVGVDFQAMWYTDEDHGIASSTAHQHIYTHMSHFIKQCFSLP"}},
  "substrate": "NCC(=O)N1CCC[C@H]1C(=O)Nc1ccc([N+](=O)[O-])cc1",
  "experiment": "purified protein, by the assay type",
  "details": "other: rsCD26; Lineweaver-Burke transformation; substrate at different concentrations; 20.0 °C",
  "procedure": "The DPPIV enzyme activities of the rsCD26 and serum DPPIV were analyzed by Michaelis-Menten kinetics by assessing kinetics of hydrolysis of substrate at different concentrations.\nDPPIV activity: The primary substrate used for determining DPPIV activity in all assays was Gly-Pro-p-nitroanilide (Gly-Pro-pNA; Sigma), which is hydrolyzed by DPPIV to release pNA absorbing strongly at 405 nm. Kinetic assays were performed using varying amounts of substrate in order to obtain estimates of the Km and Vmax using standard Michaelis-Menten kinetics. For screening assays of DPPIV activity, 150 ml of substrate was used at 1 mg/ml (2 mM final concentration) in phosphate buffer (pH7.6, 100 mM) in 96 well flat-bottomed microtiter plates together with 10 ml of appropriately diluted sample. For samples obtained after elution from the s-Sepharose column, the pH was raised to pH7.6 by addition of 25 μl of 1M Tris-HCl, pH7.6 to the reaction mixture. One unit (U) of enzyme activity was defined as the amount of enzyme that cleaved 1 mmol of Gly-Pro-pNA/min at pH7.6 and 20° C. […] The pH optimum was determined substituting phosphate buffer (100 mM, pH4.5-pH9) in place of standard incubation buffer.",
  "data": [
    {"protein": "B1", "values": [
      {"measurement": "Km", "result": 280, "unit": "µM"}
    ]}
  ]
}
